Assay results taken from US12692524B2, “Sialyltransferases and their use in producing sialylated oligosaccharides” (Chr. Hansen A/S, priority 2017, dated 2026).

Legend:
[1] = In vitro sialylation of LNT by protein extracts, LST-a/-b quantified by LC-MS/MS; format: biochemical; conditions: for Ranking in the screening for sialylation of LNT: in words
Procedure, shortened: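 E. coli BL21(DE3) crude extracts overexpressing sialyltransferases (IPTG 0.3 mM, 12–16 h at 30 °C) incubated 16 h with 5 mM LNT and 10 mM CMP-Neu5Ac in 50 mM Tris-HCl pH 7.5, 5 mM MgCl2. LST-a and LST-b measured by HILIC LC-MS/MS, MRM in ESI negative mode, against commercial standards.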

[2] = In vitro kinetics (Km, Vmax), acceptor substrate LNT; format: biochemical; conditions: 30° C., pH7.5, protein extract
Procedure: To rank the best performing sialyltransferases, their Km values for donor and acceptor substrates were determined in vitro. Escherichia coli BL21(DE3) strain #287 was used for overproduction of the enzymes. Cells were incubated in 100 ml 2YT medium in shaking flasks supplemented with 100 μg m^−1 ampicillin at 30° C. until an OD600 of 0.3 was reached. Then, 0.3 mM IPTG was added and the incubation was continued for 12 to 16 hours. Cells were harvested by centrifugation and mechanically disrupted in a defined volume of 50 mM Tris-HCl pH7.5 using glass beads. The protein extract was kept on ice until the assay started. The in vitro assay was carried out in a total volume of 50 μl including 50 mM Tris-HCl pH7.5, 5 mM MgCl2 and varying concentrations of CMP-Neu5Ac (0.05-30 mM) as well as of lactose or LNT (0.1-50 mM). The assay started with the addition of 35 to 750 μg protein extract. After 1 to 10 minutes of incubation at 30° C., the assay was inactivated at 95° C. for 5 minutes. Product formation was determined by mass spectrometry. Data were evaluated using the enzyme kinetic module of SigmaPlot v12.5 to calculate Km and Vmax.
Their kinetic parameters for CMP-Neu5Ac and LNT as well as lactose are depicted in Table 6.

[3] = 5 mM LNT, 10 mM CMP-Neu5Ac, 16 hours, LC-MS/MS, relative quantity, n.d.: not detectable

B1: SiaT9: sialyltransferase of Vibrio sp. JT-FAJ-16, acc. BAF91160, SEQ ID NO: 2 (protein, listed as Vibrio sp.)
chain: MNNDNSTTTNNNAIEIYVDRATLPTIQQMTKIVSQKTSNKKLISWSRYPITDKSLLKKINAEFFKEQFELTESLKNIILSENIDNLIIHGNTLWSIDVVDIIKEVNLLGKNIPIELHFYDDGSAEYVRIYEFSKLPESEQKYKTSLSKNNIKFSIDGTDSFKNTIENIYGFSQLYPTTYHMLRADIFDTTLKINPLRELLSNNIKQMKWDYFKDFNYKQKDIFYSLTNFNPKEIQEDFNKNSNKNFIFIGSNSATATAEEQINIISEAKKENSSIITNSISDYDLFFKGHPSATFNEQIINAHDMIEINNKIPFEALIMTGILPDAVGGMGSSVFFSIPKEVKNKFVFYKSGTDIENNSLIQVMLKLNLINRDNIKLISDI
Relative efficacy of sialyltransferases regarding in-vitro production of sialyllacto-N-tetraoses: LST-a [1, 3]: 8.39 × 10^3 | Ranking in the screening for sialylation of LNT [1]: best performing α-2,3-sialyltransferases for LST-a production | Km [2]: 2900 µM | Vmax LNT [2]: 0.15 µmol/min

B2: SiaT19: sialyltransferase of Photobacterium leiognathi JT-SHIZ-145, acc. BAF91416, SEQ ID NO: 30 (protein, listed as Photobacterium leiognathi)
chain: MNDNQNTVDVVVSTVNDNVIENNTYQVKPIDTPTTFDSYSWIQTCGTPILKDDEKYSLSFDFVAPELDQDEKFCFEFTGDVDGKRYVTQTNLTVVAPTLEVYVDHASLPSLQQLMKIIQQKNEYSQNERFISWGRIRLTEDNAEKLNAHIYPLAGNNTSQELVDAVIDYADSKNRLNLELNTNTGHSFRNIAPILRATSSKNNILISNINLYDDGSAEYVSLYNWKDTDNKSQKLSDSFLVLKDYLNGISSEKPNGIYSIYNWHQLYHSSYYFLRKDYLTVETKLHDLREYLGGSLKQMSWDTFSQLSKGDKELFLNIVGFDQEKLQQEYQQSELPNFVFTGTTTWAGGETKEYYAQQQVNVVNNAINETSPYYLGREHDLFFKGHPRGGIINDIILGSFNNMIDIPAKVSFEVLMMTGMLPDTVGGIASSLYFSIPAEKVSFIVFTSSDTITDREDALKSPLVQVMMTLGIVKEKDVLFWC
Relative efficacy of sialyltransferases regarding in-vitro production of sialyllacto-N-tetraoses: LST-b [1, 3]: 157 | Ranking in the screening for sialylation of LNT [1]: sialylate LNT most efficiently among the tested α-2,6-sialyltransferases | Km [2]: 2900 µM | Vmax LNT [2]: 0.04 µmol/min
